# Laboratory results reported in patent US20200138870A1, “RECREATION OF PANCREATIC NICHE ALLOWS FOR NOVEL METHODS FOR HUMAN, MATURE BETA DERIVATION FROM PLURIPOTENT STEM CELLS” (Baylor College of Medicine, priority 2016, published 2020).
# Where “and” joins values, the source holds several entries; their conditions need not be identical. Identical values can stand only once.
# B1: WNT5A: secreted growth factor from the human pancreatic niche (R&D), used at 100 or 500 ng/ml (protein)
# chain: IIGAQPLCSQLAGLSQGQKKLCHLYQDHMQYIGEGAKTGIKECQYQFRHRRWNCSTVDNTSVFGRVMQIGSRETAFTYAVSAAGVVNAMSRACREGELSTCGCSRAARPKDLPRDWLWGGCGDNIDYGYRFAKEFVDARERERIHAKGSYESARILMNLHNNEAGRRTVYNLADVACKCHGVSGSCSLKTCWLQLADFRKVGDALKEKYDSAAAMRLNSRGKLVQVNSRFNSPTTQDLVYIDPSPDYCVRNESTGSLGTQGRLCNKTSEGMDGCELMCCGRGYDQFKTVQTERCHCKFHWCCYVKCKKCTEIVDQFVCK
# How the values were obtained:
# Assay type in all cases: cell-based, human
# 3D-EPs = experiment: WNT5A treatment in 3D SC-β cell differentiation protocol (Pagliuca et al., 2014); conditions: 4 days of treatment, compared to INS upregulation at 12-day in original protocol
# Method: SC-β cells were generated using the protocol as previously described (Pagliuca et al., 2014). WNT5A were introduced into the differentiation from EP stage (EN in the original paper) together with T3, ALK5i in CMRL media for the first two days and then change into T3, ALK5i in CMRL media from the third day. Samples were collected at the 4th day and 12th day counting from EP stage and were fixed with 4% PFA and thrice washed with PBS for 10 min. For whole-mount staining, samples were first blocked with 5% donkey serum in PBST overnight and incubated with antibodies overnight as described above.
# [1] = system: canonical β-catenin-dependent pathway; experiment: TOPFLASH reporter assay; conditions: 100 or 500 ng/ml WNT5A, 3 days
# Method: For TOPFLASH reporter assay, 80,000 EPs were transfected with 0.5 μg of TOPFLASH (Addgene #12456) or FOPFLASH (Addgene #12457) from Dr. Randall Moon, together with 0.25 μg pRLTK using Lipofectamine 2000 (Invitrogen) for 48h. Cells were then treated with CHIR99021 (as positive control), DMSO (mock control) or WNT5A for 3 days before collecting the samples. Luciferase assay was performed using Dual luciferase assay system (Promega) which Luciferase and Renilla signal were measured by TD20/20 Luminometer (Turner designs).
# hESC-derived EPs = experiment: qPCR-based gene expression analysis of WNT5A-treated EPs
# Method: Total RNA was isolated using TRIzol (Thermo Fisher Scientific) according to the manufacturer's protocol. DNAase (Qiagen) treatment was performed to remove genomic DNA. cDNA was synthesized using iScript (Biorad) by using […] of RNA. For qPCR, KAPA SYBR FAST (Kapa Biosystems) and Connect CFX light cycler (Biorad) for PCR reaction (<40 cycles were used). Primers were designed using qPrimerDepot in such way that the PCR product spans across exons junction. Primer specificity was checked using CFX manager software v3.1 […] and PCR product electrophoresis. Threshold data were analyzed by CFX manager software v3.1 using Comparative Ct relative quantitation method with TBP as internal control.
# c-JUN = experiment: p-c-JUN immunofluorescence in EPs; conditions: WNT5A short-term treatment (24h in FIG. 6G)
# Method: Cells were incubated with 5% donkey serum (Jackson ImmunoResearch Laboratories) in PBST (PBS+0.1% Triton-X) for 30 min to avoid nonspecific binding of the antibody and to permeabilize the cells. Primary antibodies, diluted in 5% donkey serum in PBST, were then added and incubated at 4° C. overnight with shaking. After primary antibody incubation, cells were washed 3 times with PBST and secondary antibodies conjugated with Alexa-Fluor Dyes (Jackson ImmunoResearch Laboratories) and diluted in 5% donkey serum in PBST were added to the cells for 30 min at RT. Then, cells were thrice washed with PBST and nuclei were stained with Dapi (Roche Diagnostics). For imaging, Leica DMI6000 or confocal Leica TCS SPE was used. Images were initially processed by LAS X software and then further analyzed and quantified using ImageJ software (NIH, W Rasband, http://rsb.info.nih.gov/ij) using cell counter plug-in. Typically, at least 5 randomly selected images were counted per condition.
# AP-1 = experiment: Dual-pathway multicolor luciferase assay, AP-1 reporter; conditions: 500 ng/ml WNT5A, after 24h
# From the text: The dual-pathway luciferase reporter vector was generated using the GoldenBraid2.0 Assembly Platform (Sarrion-Perdigones et al., 2011; Sarrion-Perdigones et al., 2013). Briefly, transcriptional units comprising the promoter elements, the CDS of the corresponding luciferase and the bovine growth hormone terminator were first assembled, and then these were latter combined in successive rounds of assembly to build the multigenic vector used in this assay. For the multicolor luciferase assay, H1-derived EPs were first dissociated into 96-well plates using method previously described and incubated overnight to allow cell attachment. […] At the determined harvesting point, culture media was removed and wells were washed with PBS. […] 10 μL of LARII reagent was added with the built-in injectors and after 2 seconds, the total light and the BP filtered light emitted by the FLuc and RedF mixture were measured for 1 second. Finally, 15 μL of Stop & Glo® reagent were injected and after 4 seconds the emitted light by Renilla luciferase was measured. The activity corresponding to FLuc and RedF that were simultaneously measured after the LARII reagent was added were calculated according to the method proposed by Nakayima et al (Nakajima et al., 2005) that is adjusted to this particular assay and explained in FIG. 7D.
molecule,measurement,setting,value
B1,number of INS+ cells in independent 3D protocol (in words),3D-EPs,increasing the number of INS+ cells
same,"activity of β-catenin-dependent pathway, TOPFLASH (in words)",[1],did not significantly activate or antagonize
same,GCG expression compared to untreated cells (in words),hESC-derived EPs; 5-day WNT5A-treated cells,decreased
same,"INS, CHGA, ONECUT1 and PCSK2 expression compared to untreated cells (in words)",hESC-derived EPs; 5-day WNT5A-treated cells,increased
same,"BMP3, BMP4 and BMP6 expression by qPCR (in words)",hESC-derived EPs; 5 day-WNT5A treatment,downregulation
same,BMP inhibitor BMPER expression by qPCR (in words),hESC-derived EPs; 5 day-WNT5A treatment,upregulation
same,increase in p-c-JUN (number of c-JUN+ cells) compared to untreated control,c-JUN,9 fold and 6 fold
same,AP-1 activity (in words),AP-1,activates
